Measurements: IntAct's records for PubMed 31142615

Molecular target: marh2_human MARCHF2 (UniProt Q9P0N8)
Sequence (Q9P0N8 whole entry): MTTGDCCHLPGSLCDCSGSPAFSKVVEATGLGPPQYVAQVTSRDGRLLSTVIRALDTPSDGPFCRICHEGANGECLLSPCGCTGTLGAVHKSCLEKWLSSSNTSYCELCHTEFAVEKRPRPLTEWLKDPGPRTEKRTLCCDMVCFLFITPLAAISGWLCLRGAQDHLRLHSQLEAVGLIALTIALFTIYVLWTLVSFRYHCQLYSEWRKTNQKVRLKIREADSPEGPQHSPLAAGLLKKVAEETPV

Chain of Endoplasmic reticulum-Golgi intermediate compartment protein 3 (Homo sapiens), Q9Y282 K6R;K8R (Q9Y282 whole entry K6R/K8R): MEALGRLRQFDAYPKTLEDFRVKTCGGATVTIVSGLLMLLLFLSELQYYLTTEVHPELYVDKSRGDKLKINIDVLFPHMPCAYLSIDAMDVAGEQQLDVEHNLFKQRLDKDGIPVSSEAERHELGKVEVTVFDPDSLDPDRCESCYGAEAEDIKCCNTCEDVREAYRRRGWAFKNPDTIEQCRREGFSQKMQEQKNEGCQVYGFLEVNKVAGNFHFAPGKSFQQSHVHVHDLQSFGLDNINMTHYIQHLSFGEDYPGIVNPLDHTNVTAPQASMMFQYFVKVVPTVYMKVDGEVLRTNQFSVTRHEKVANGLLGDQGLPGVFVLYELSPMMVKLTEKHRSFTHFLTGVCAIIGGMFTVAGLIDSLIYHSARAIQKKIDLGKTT

- effect of a mutation on the interaction: with no effect
Substance: Endoplasmic reticulum-Golgi intermediate compartment protein 3 (Homo sapiens), Q9Y282 K6R;K8R
